Source: paper PMC8809517, “Cofactor-independent RNA editing by a synthetic S-type PPR protein”
Substitutions are numbered along the chain they refer to.

T1: GFP-9S library array, motif 4 ND N98I (synthetic construct, N98I)
T1 chain: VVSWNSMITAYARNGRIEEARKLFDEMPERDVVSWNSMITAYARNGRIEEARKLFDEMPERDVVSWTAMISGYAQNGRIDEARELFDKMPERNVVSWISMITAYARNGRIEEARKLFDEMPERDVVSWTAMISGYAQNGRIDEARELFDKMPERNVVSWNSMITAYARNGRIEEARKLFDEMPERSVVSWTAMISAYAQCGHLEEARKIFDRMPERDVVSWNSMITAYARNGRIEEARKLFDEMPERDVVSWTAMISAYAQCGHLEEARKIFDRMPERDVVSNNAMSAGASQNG

T2: GFP-9S library array, motif 4 ND N98E;D124K (synthetic construct, N98E;D124K)
T2 chain: T1 chain with I98E, D124K

T3: GFP-9S library array, motif 4 ND N98A;D124Y (synthetic construct, N98A;D124Y)
T3 chain: T1 chain with I98A, D124Y

T4: GFP-9S library array, motif 4 ND N98W;D124C (synthetic construct, N98W;D124C)
T4 chain: T1 chain with I98W, D124C

T5: GFP-9S library array, motif 4 ND N98H;D124V (synthetic construct, N98H;D124V)
T5 chain: T1 chain with I98H, D124V


How the values were obtained:
Assay in all cases: high-throughput RNA pulldown from lysate on Ni-NTA beads; HRP: 50 mM Tris pH 8, 150 mM NaCl, 1 mM beta-mercaptoethanol, 50 ug/ml BSA, 3 ug/ml yeast RNA, 0.5% heparin; ITC and FP: Tris pH 8, 200 mM KCl, 5% glycerol; MST: 50 mM Tris pH 8, 200 mM NaCl, 1 mM DTT, BSA, heparin, 0.05% Tween 20
Conditions in all cases: tags: N-terminal His-eGFP
[1] = target: T1, GFP-9S library array, motif 4 ND N98I
[2] = target: T2, GFP-9S library array, motif 4 ND …
[3] = target: T3, GFP-9S library array, motif 4 ND …
[4] = target: T4, GFP-9S library array, motif 4 ND …
[5] = target: T5, GFP-9S library array, motif 4 ND …

Binder | Kd ([1]; label: 5' Cy5) [nM] | Kd ([2]; label: 5' Cy5) [nM] | Kd ([3]; label: 5' Cy5) [nM] | Kd ([4]; label: 5' Cy5) [nM] | Kd ([5]; label: 5' Cy5) [nM] | Kd ([1]; label: 5' IRDye 800CW) [nM] | Kd ([2]; label: 5' IRDye 800CW) [nM] | Kd ([3]; label: 5' IRDye 800CW) [nM] | Kd ([4]; label: 5' IRDye 800CW) [nM] | Kd ([5]; label: 5' IRDye 800CW) [nM]
AUUACACGUGA (ssRNA) [Cy5-rpoA] | 153 | 124 | 82.5 | 79.4 | 81.3 |  |  |  |  | 
AUUAGACGUGA (ssRNA) [Cy5-rpoA-G] | 127 | 155 | 68.5 | 77.6 | 95.2 |  |  |  |  | 
AUUAAACGUGA (ssRNA) [IR-rpoA-A] |  |  |  |  |  | 175 | 312 | 172 | 181 | 115
AUUAUACGUGA (ssRNA) [IR-rpoA-U] |  |  |  |  |  | 53.5 | 267 | 175 | 199 | 57.3
